Measured values reported in US20260152573A1 (ARGENX, published 2026).

B1: Alb23 D57A (VHH)
VHH: EVQLLESGGGLVQPGGSLRLSCAASGFTFRSFGMSWVRQAPGKGPEWVSSISGSGSATLYADSVKGRFTISRDNSKNTLYLQMNSLRPEDTAVYYCTIGGSLSRSSQGTLVTVSS
notes: VHH alone
B2: Alb23 D62A (VHH)
VHH: EVQLLESGGGLVQPGGSLRLSCAASGFTFRSFGMSWVRQAPGKGPEWVSSISGSGSDTLYAASVKGRFTISRDNSKNTLYLQMNSLRPEDTAVYYCTIGGSLSRSSQGTLVTVSS
notes: VHH alone
B3: Alb23 G66A (VHH)
VHH: EVQLLESGGGLVQPGGSLRLSCAASGFTFRSFGMSWVRQAPGKGPEWVSSISGSGSDTLYADSVKARFTISRDNSKNTLYLQMNSLRPEDTAVYYCTIGGSLSRSSQGTLVTVSS
notes: VHH alone
B4: Alb23 I51A (VHH)
VHH: EVQLLESGGGLVQPGGSLRLSCAASGFTFRSFGMSWVRQAPGKGPEWVSSASGSGSDTLYADSVKGRFTISRDNSKNTLYLQMNSLRPEDTAVYYCTIGGSLSRSSQGTLVTVSS
notes: VHH alone
B5: Alb23 K65A (VHH)
VHH: EVQLLESGGGLVQPGGSLRLSCAASGFTFRSFGMSWVRQAPGKGPEWVSSISGSGSDTLYADSVAGRFTISRDNSKNTLYLQMNSLRPEDTAVYYCTIGGSLSRSSQGTLVTVSS
notes: VHH alone
B6: Alb23 R104A (VHH)
VHH: EVQLLESGGGLVQPGGSLRLSCAASGFTFRSFGMSWVRQAPGKGPEWVSSISGSGSDTLYADSVKGRFTISRDNSKNTLYLQMNSLRPEDTAVYYCTIGGSLSASSQGTLVTVSS
notes: VHH alone
B7: Alb23 S31A (VHH)
VHH: EVQLLESGGGLVQPGGSLRLSCAASGFTFRAFGMSWVRQAPGKGPEWVSSISGSGSDTLYADSVKGRFTISRDNSKNTLYLQMNSLRPEDTAVYYCTIGGSLSRSSQGTLVTVSS
notes: VHH alone
B8: Alb23 S35A (VHH)
VHH: EVQLLESGGGLVQPGGSLRLSCAASGFTFRSFGMAWVRQAPGKGPEWVSSISGSGSDTLYADSVKGRFTISRDNSKNTLYLQMNSLRPEDTAVYYCTIGGSLSRSSQGTLVTVSS
notes: VHH alone
B9: Alb23 S50A (VHH)
VHH: EVQLLESGGGLVQPGGSLRLSCAASGFTFRSFGMSWVRQAPGKGPEWVSAISGSGSDTLYADSVKGRFTISRDNSKNTLYLQMNSLRPEDTAVYYCTIGGSLSRSSQGTLVTVSS
notes: VHH alone
B10: Alb23 S54A (VHH)
VHH: EVQLLESGGGLVQPGGSLRLSCAASGFTFRSFGMSWVRQAPGKGPEWVSSISGAGSDTLYADSVKGRFTISRDNSKNTLYLQMNSLRPEDTAVYYCTIGGSLSRSSQGTLVTVSS
notes: VHH alone
B11: Alb23 S56A (VHH)
VHH: EVQLLESGGGLVQPGGSLRLSCAASGFTFRSFGMSWVRQAPGKGPEWVSSISGSGADTLYADSVKGRFTISRDNSKNTLYLQMNSLRPEDTAVYYCTIGGSLSRSSQGTLVTVSS
notes: VHH alone
B12: Alb23 S103A (VHH)
VHH: EVQLLESGGGLVQPGGSLRLSCAASGFTFRSFGMSWVRQAPGKGPEWVSSISGSGSDTLYADSVKGRFTISRDNSKNTLYLQMNSLRPEDTAVYYCTIGGSLARSSQGTLVTVSS
notes: VHH alone
B13: Alb23 T58A (VHH)
VHH: EVQLLESGGGLVQPGGSLRLSCAASGFTFRSFGMSWVRQAPGKGPEWVSSISGSGSDALYADSVKGRFTISRDNSKNTLYLQMNSLRPEDTAVYYCTIGGSLSRSSQGTLVTVSS
notes: VHH alone
B14: Alb23 V64A (VHH)
VHH: EVQLLESGGGLVQPGGSLRLSCAASGFTFRSFGMSWVRQAPGKGPEWVSSISGSGSDTLYADSAKGRFTISRDNSKNTLYLQMNSLRPEDTAVYYCTIGGSLSRSSQGTLVTVSS
notes: VHH alone
B15: Alb23 Y60A (VHH)
VHH: EVQLLESGGGLVQPGGSLRLSCAASGFTFRSFGMSWVRQAPGKGPEWVSSISGSGSDTLAADSVKGRFTISRDNSKNTLYLQMNSLRPEDTAVYYCTIGGSLSRSSQGTLVTVSS
notes: VHH alone
B16: OA-Fc-ABDEG-Alb23 (Fc fusion)
chain: DKTHTCPPCPAPELLGGPSVFLFPPKPKDTLYITREPEVTCVVVDVSHEDPEVKFNWYVDGVEVHNAKTKPREEQYNSTYRVVSVLTVLHQDWLNGKEYKCKVSNKALPAPIEKTISKAKGQPREPQVYTLPPSRDELTKNQVSLWCLVKGFYPSDIAVEWESNGQPENNYKTTPPVLDSDGSFFLYSKLTVDKSRWQQGNVFSCSVMHEALKFHYTQKSLSLSPGGGGGSGGGGSGGGGSGGGGSEVQLLESGGGLVQPGGSLRLSCAASGFTFRSFGMSWVRQAPGKGPEWVSSISGSGSDTLYADSVKGRFTISRDNSKNTLYLQMNSLRPEDTAVYYCTIGGSLSRSSQGTLVTVSS
Fc: DKTHTCPPCPAPELLGGPSVFLFPPKPKDTLYITREPEVTCVVVDVSHEDPEVKFNWYVDGVEVHNAKTKPREEQYNSTYRVVSVLTVLHQDWLNGKEYKCKVSNKALPAPIEKTISKAKGQPREPQVYTLPPSRDELTKNQVSLSCAVKGFYPSDIAVEWESNGQPENNYKTTPPVLDSDGSFFLVSKLTVDKSRWQQGNVFSCSVMHEALKFHYTQKSLSLSPG
notes: also called one-armed Fc-ABDEG-Alb23; OA-Fc-ABDEG-Alb23 (parental)
B17: OA-Fc-ABDEG-Alb23-G33A (Fc fusion)
chain: DKTHTCPPCPAPELLGGPSVFLFPPKPKDTLYITREPEVTCVVVDVSHEDPEVKFNWYVDGVEVHNAKTKPREEQYNSTYRVVSVLTVLHQDWLNGKEYKCKVSNKALPAPIEKTISKAKGQPREPQVYTLPPSRDELTKNQVSLWCLVKGFYPSDIAVEWESNGQPENNYKTTPPVLDSDGSFFLYSKLTVDKSRWQQGNVFSCSVMHEALKFHYTQKSLSLSPGGGGGSGGGGSGGGGSGGGGSEVQLLESGGGLVQPGGSLRLSCAASGFTFRSFAMSWVRQAPGKGPEWVSSISGSGSDTLYADSVKGRFTISRDNSKNTLYLQMNSLRPEDTAVYYCTIGGSLSRSSQGTLVTVSS
Fc: DKTHTCPPCPAPELLGGPSVFLFPPKPKDTLYITREPEVTCVVVDVSHEDPEVKFNWYVDGVEVHNAKTKPREEQYNSTYRVVSVLTVLHQDWLNGKEYKCKVSNKALPAPIEKTISKAKGQPREPQVYTLPPSRDELTKNQVSLSCAVKGFYPSDIAVEWESNGQPENNYKTTPPVLDSDGSFFLVSKLTVDKSRWQQGNVFSCSVMHEALKFHYTQKSLSLSPG
B18: OA-Fc-ABDEG-Alb23-G33A/G53A (Fc fusion)
chain: DKTHTCPPCPAPELLGGPSVFLFPPKPKDTLYITREPEVTCVVVDVSHEDPEVKFNWYVDGVEVHNAKTKPREEQYNSTYRVVSVLTVLHQDWLNGKEYKCKVSNKALPAPIEKTISKAKGQPREPQVYTLPPSRDELTKNQVSLWCLVKGFYPSDIAVEWESNGQPENNYKTTPPVLDSDGSFFLYSKLTVDKSRWQQGNVFSCSVMHEALKFHYTQKSLSLSPGGGGGSGGGGSGGGGSGGGGSEVQLLESGGGLVQPGGSLRLSCAASGFTFRSFAMSWVRQAPGKGPEWVSSISASGSDTLYADSVKGRFTISRDNSKNTLYLQMNSLRPEDTAVYYCTIGGSLSRSSQGTLVTVSS
Fc: DKTHTCPPCPAPELLGGPSVFLFPPKPKDTLYITREPEVTCVVVDVSHEDPEVKFNWYVDGVEVHNAKTKPREEQYNSTYRVVSVLTVLHQDWLNGKEYKCKVSNKALPAPIEKTISKAKGQPREPQVYTLPPSRDELTKNQVSLSCAVKGFYPSDIAVEWESNGQPENNYKTTPPVLDSDGSFFLVSKLTVDKSRWQQGNVFSCSVMHEALKFHYTQKSLSLSPG

Tests used:
human serum albumin [1] = target: T1, human serum albumin (human, UniProt P02768 25-609); assay: SPR Biacore 8K+ SCK, albumin on chip, pH 7.4
T1 construct: Immobilised on SPR chips; also added in solution in the FcRn occupancy assays; also called HSA; humanSA

[2] = target: T2, cynomolgus monkey serum albumin (cynomolgus monkey, UniProt A2V9Z4 25-608); assay: SPR Biacore 8K+ SCK, albumin on chip, pH 7.4
T2 construct: Immobilised on SPR chips; also called cynoSA; cynomolgus albumin

mouse serum albumin = target: T3, mouse serum albumin (mouse, UniProt P07724 25-608); assay: SPR Biacore 8K+ SCK, albumin on chip, pH 7.4
T3 construct: Immobilised on SPR chips; also called mouseSA; MSA

[3] = target: T4, neonatal Fc receptor (FcRn), endogenous in U937 cells (human, UniProt P55899 24-365; P61769 21-119); assay: FcRn occupancy, FACS, U937 cells, with albumin
T4 construct: whole, on cells; Free FcRn was stained intracellularly after fixation and permeabilisation
T4 sequence (P55899 24-365 limits assumed, chain 1 of 2): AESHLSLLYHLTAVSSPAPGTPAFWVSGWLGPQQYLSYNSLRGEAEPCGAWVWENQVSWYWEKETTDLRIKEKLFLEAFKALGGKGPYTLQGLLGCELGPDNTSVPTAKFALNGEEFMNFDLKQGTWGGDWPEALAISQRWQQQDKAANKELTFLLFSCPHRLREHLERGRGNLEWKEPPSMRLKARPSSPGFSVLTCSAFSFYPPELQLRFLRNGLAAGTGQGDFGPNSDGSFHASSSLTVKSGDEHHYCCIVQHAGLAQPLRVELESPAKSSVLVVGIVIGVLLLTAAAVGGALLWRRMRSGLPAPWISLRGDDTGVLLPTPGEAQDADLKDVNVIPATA
T4 sequence (P61769 21-119 limits assumed, chain 2 of 2): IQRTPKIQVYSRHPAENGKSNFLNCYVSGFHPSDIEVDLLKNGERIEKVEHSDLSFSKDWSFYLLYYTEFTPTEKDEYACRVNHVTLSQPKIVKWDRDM
Protocol: Next, FcRn occupancy was tested using a cell-based FcRn occupancy assay in the presence or absence of albumin. […] Cells (HEK FcRn mut or U937) were plated in a 96-well microplate. Cells were incubated with test article for two hours, shaking at 37° C., pH 7.4 in FACS buffer. Plates were then transferred immediately on ice and cells were collected by centrifugation at 4° C. Cells stained for viability in FACS buffer at pH 6 and then fixed/permeabilized in permeabilization buffer at pH 6. […] Cells were analyzed by FACS, ensuring that they are kept on ice until immediately prior to analysis.

human serum albumin [4] = target: T1, human serum albumin; assay: SPR Biacore, HSA coated, kinetic fit, pH 5.5
human serum albumin [5] = target: T1, human serum albumin; assay: SPR Biacore, HSA coated, steady state, pH 5.5
human serum albumin [6] = target: T1, human serum albumin; assay: SPR Biacore, HSA coated, kinetic fit, pH 7.4
human serum albumin [7] = target: T1, human serum albumin; assay: SPR Biacore, HSA coated, steady state, pH 7.4

Binder	Kd (human serum albumin [1])	Kd [2]	Kd (mouse serum albumin)	% max occupancy [3]	IC50 [3]	Kd (human serum albumin [4])	Kd (human serum albumin [5])	Kd (human serum albumin [6])	Kd (human serum albumin [7])
B1	5.58 nM	6.25 nM	50.6 nM	–	–	–	–	–	–
B2	3.07 nM	3.48 nM	36.5 nM	–	–	–	–	–	–
B3	3.97 nM	5.84 nM	39.5 nM	–	–	–	–	–	–
B4	5.17 nM	5.53 nM	42.3 nM	–	–	–	–	–	–
B5	5.36 nM	3.18 nM	52.3 nM	–	–	–	–	–	–
B6	4.58 nM	4.92 nM	49.7 nM	–	–	–	–	–	–
B7	3.36 nM	3.74 nM	29.3 nM	–	–	–	–	–	–
B8	4.95 nM	5.24 nM	37.6 nM	–	–	–	–	–	–
B9	2.33 nM	2.6 nM	19 nM	–	–	–	–	–	–
B10	2.81 nM	3.13 nM	25.6 nM	–	–	–	–	–	–
B11	3.33 nM	3.65 nM	37.7 nM	–	–	–	–	–	–
B12	3.85 nM	4.2 nM	38.2 nM	–	–	–	–	–	–
B13	5.97 nM	6.83 nM	57.1 nM	–	–	–	–	–	–
B14	2.9 nM	4.11 nM	31.9 nM	–	–	–	–	–	–
B15	4.28 nM	4.58 nM	42.2 nM	–	–	–	–	–	–
B16	–	–	–	67.4%	5.2 nM	16.6 nM	32.7 nM	–	–
B17	–	–	–	–	–	124 nM	145 nM	150 nM	863 nM
B18	–	–	–	–	–	90.2 nM	135 nM	499 nM	767 nM
